According to patent US20210220404A1 (Novartis, published 2021):
Where a chain is given by its changes, count along the chain named. No end group written: not given here.

B1: human recombinant (r)BCMA_Fc-AF647 (Fc fusion)
chain: MLQMAGQCSQNEYFDSLLHACIPCQLRCSSNTPPLTCQRYCNASVTNSVKGTNA
modifications: cysteine pairing not given here; also: Alexa Fluor 647 label, Fc fusion tag, unspecified
notes: In-house flow cytometry staining reagent; not shown: Fc part of an in-house reagent
B2: Hy52 BCMA CAR (other)
chain: EVQLVESGGGLVKPGGSLRLSCAASGFTFSSFRMNWVRQAPGKGLEWVSSISSSSSYIYYADSVKGRFTISRDNAKNSLYLQMNSLRAEDTAVYYCARWLSYYGMDVWGQGTTVTVSSGGGGSGGGGSGGGGSGGGGSDIVMTQTPLSLPVTPGEPASISCRSSQSLLDSDDGNTYLDWYLQKPGQSPQLLIYTLSFRASGVPDRFSGSGSGTDFTLKIRRVEAEDVGVYYCMQRIGFPITFGQGTRLEIKTTTPAPRPPTPAPTIASQPLSLRPEACRPAAGGAVHTRGLDFACDIYIWAPLAGTCGVLLLSLVITLYCKRGRKKLLYIFKQPFMRPVQTTQEEDGCSCRFPEEEEGGCELRVKFSRSADAPAYQQGQNQLYNELNLGRREEYDVLDKRRGRDPEMGGKPRRKNPQEGLYNELQKDKMAEAYSEIGMKGERRRGKGHDGLYQGLSTATKDTYDALHMQALPPR
notes: CAR on transduced JNL cells or primary human T cells
B3: duCD19.1 anti-CD19 CAR (other)
chain: EIVMTQSPATLSLSPGERATLSCRASQDISKYLNWYQQKPGQAPRLLIYHTSRLHSGIPARFSGSGSGTDYTLTISSLQPEDFAVYFCQQGNTLPYTFGQGTKLEIKGGGGSGGGGSGGGGSQVQLQESGPGLVKPSETLSLTCTVSGVSLPDYGVSWIRQPPGKGLEWIGVIWGSETTYYQSSLKSRVTISKDNSKNQVSLKLSSVTAADTAVYYCAKHYYYGGSYAMDYWGQGTLVTVSSTTTPAPRPPTPAPTIASQPLSLRPEACRPAAGGAVHTRGLDFACDIYIWAPLAGTCGVLLLSLVITLYCKRGRKKLLYIFKQPFMRPVQTTQEEDGCSCRFPEEEEGGCELRVKFSRSADAPAYQQGQNQLYNELNLGRREEYDVLDKRRGRDPEMGGKPRRKNPQEGLYNELQKDKMAEAYSEIGMKGERRRGKGHDGLYQGLSTATKDTYDALHMQALPPR
notes: CAR on transduced primary human T cells; also called CTL119; Mono-duCD19.1
B4: PI61 BCMA CAR (other)
chain: QVQLQESGGGVVQPGRSLRLSCAASGFTFSSYGMHWVRQAPGKGLEWVAVISYDGSNKYYADSVKGRFTISRDNSKNTLYLQMNSLRAEDTAVYYCGGSGYALHDDYYGLDVWGQGTLVTVSSGGGGSGGGGSGGGGSQSALTQPASVSGSPGQSITISCTGTSSDVGGYNYVSWYQQHPGKAPKLMIYDVSNRPSGVSNRFSGSKSGNTASLTISGLQAEDEADYYCSSYTSSSTLYVFGSGTKVTVLTTTPAPRPPTPAPTIASQPLSLRPEACRPAAGGAVHTRGLDFACDIYIWAPLAGTCGVLLLSLVITLYCKRGRKKLLYIFKQPFMRPVQTTQEEDGCSCRFPEEEEGGCELRVKFSRSADAPAYQQGQNQLYNELNLGRREEYDVLDKRRGRDPEMGGKPRRKNPQEGLYNELQKDKMAEAYSEIGMKGERRRGKGHDGLYQGLSTATKDTYDALHMQALPPR
notes: CAR on transduced JNL cells or primary human T cells; also called P161; Mono PI61
B5: Hy03 BCMA CAR (other)
chain: EVQLVESGGGLVQPGGSLRLSCAASGFTFSGFWMSWVRQAPGKGLEWVANIKQDGSEKYYVDSVRGRFTISRDNAKNSLYLQMNSLRAEDTAVYYCARALDYYGMDVWGQGTTVTVSSGGGGSGGGGSGGGGSGGGGSDIVMTQTPLSLPVTPGEPASISCRSSQSLLDSDDGNTYLDWYLQKPGQSPRLLIYTLSYRASGVPDRFSGSGSGTDFTLKISRVEAEDVGLYYCTQRLEFPSITFGQGTRLEIKTTTPAPRPPTPAPTIASQPLSLRPEACRPAAGGAVHTRGLDFACDIYIWAPLAGTCGVLLLSLVITLYCKRGRKKLLYIFKQPFMRPVQTTQEEDGCSCRFPEEEEGGCELRVKFSRSADAPAYQQGQNQLYNELNLGRREEYDVLDKRRGRDPEMGGKPRRKNPQEGLYNELQKDKMAEAYSEIGMKGERRRGKGHDGLYQGLSTATKDTYDALHMQALPPR
notes: as for B2
B6: B61-10 BCMA CAR (other)
chain: QVQLVESGGGVVQPGRSLRLSCAASGFTFSSYGMHWVRQAPGKGLEWVAVISYKGSNKYYADSVKGRFTISRDNSKNTLYLQMNSLRAEDTAVYYCGGSGYALHDDYYGLDVWGQGTLVTVSSGGGGSGGGGSGGGGSGGGGSQSALTQPASVSGSPGQSITISCTGTSSDVGGYNYVSWYQQHPGKAPKLMIYEVSNRLRGVSNRFSGSKSGNTASLTISGLQAEDEADYYCSSYTSSSTLYVFGSGTKVTVLTTTPAPRPPTPAPTIASQPLSLRPEACRPAAGGAVHTRGLDFACDIYIWAPLAGTCGVLLLSLVITLYCKRGRKKLLYIFKQPFMRPVQTTQEEDGCSCRFPEEEEGGCELRVKFSRSADAPAYQQGQNQLYNELNLGRREEYDVLDKRRGRDPEMGGKPRRKNPQEGLYNELQKDKMAEAYSEIGMKGERRRGKGHDGLYQGLSTATKDTYDALHMQALPPR
notes: as for B2
B7: B61-02 BCMA CAR (other)
chain: B6 chain with T241A
notes: as for B2

Assays:
[1] = target: T1, anti-BCMA CAR arm of duCD19.1-P2A-duBCMA.4 (construct 234); assay: flow cytometry, T cells with construct 234, day 8, MFI of rBCMA-Fc stain
T1 construct: also called c234; duCD19.1-duBCMA.4

245 = target: T2, 245; assay: flow cytometry, T cells with construct 245, day 8, MFI of rBCMA-Fc stain
T2 construct: also called c245; Mono-duBCMA.4

[2] = target: B1; assay: flow cytometry; rBCMA_Fc-AF647 staining of CAR-transduced primary human T cells, day 5 of culture (reported by the filing as CAR expression)
Description: (§1) BCMA CAR T cells were generated by starting with blood from healthy apheresed donors whose T cells (CD4+ and CD8+ lymphocytes) were obtained by negative selection for CD3+ T cells. These cells were activated by the addition of CD3/CD28 beads (Dynabeads® Human T-Expander CD3/CD28, Thermo Fisher Scientific) at a ratio of 1:3 (T cell to bead) in T cell medium (RPMI1640, 10% heat-inactivated fetal calf serum (FCS), 2 mM L-glutamine, 1× Penicillin/Streptomycin, 100 μM non-essential amino acids, 1 mM Sodium Pyruvate, 10 mM Hepes, and 55 μM 2-mercaptoethanol). T cells were cultured at 0.5×10⁶ T cells in 1 mL medium per well of a 24-well plate at 37° C., 5% CO₂. After 24 hours, when T cells were blasting, T cells were transduced with BCMA CAR virus at a multiplicity of infection (MOI) of 5. […] Aliquots of T cells were stained to measure CAR expression by flow cytometry at day 5 and 9 on a FACS Fortessa (BD). All BCMA CAR T cells were produced under research grade (i.e., not clinical grade) manufacturing conditions.
(§2) The BCMA-CAR surface expression and its stability was assessed by measuring CAR % and MFI (mean fluorescence intensity) at day 5 and day 9 using flow cytometry analyses of rBCMA_Fc-AF647 stained cells (FIG. 2 and Table 27).

[3] = target: B1; assay: flow cytometry; rBCMA_Fc-AF647 staining of CAR-transduced primary human T cells, day 9 of culture (reported by the filing as CAR expression)
Description: as §1, §2

[4] = target: B1; assay: flow cytometry, T cells with construct 244, day 8, rBCMA-Fc AF647 stain
Description: BCMA-CD19 dual or monoBCMA or monoCD19 CART cells were generated using human primary T cells (CD4+ and CD8+ lymphocytes) obtained by negative selection or positive selection via Prodigy upon processing blood from healthy apheresed donors. Before transduction, the T cells were activated using CD3/CD28 beads (Dynabeads® Human T-Expander CD3/CD28, Thermo Fisher Scientific) at a ratio of 1:3 (T cell to bead) in T cell medium (RPMI1640, 10% heat-inactivated fetal calf serum (FCS), 2 mM L-glutamine, 1× Penicillin/Streptomycin, 100 μM non-essential amino acids, 1 mM Sodium Pyruvate, 10 mM Hepes, and 55 μM 2-mercaptoethanol). The cells were cultured at a density of 0.5×10⁶/mL medium per well in a 24-well plate at 37° C., 5% CO₂. After 24 hours, when T cells were blasting, they were transduced with viruses at a multiplicity of infection (MOI) of 5 based on the upstream CAR titer. T cells began to divide in a logarithmic growth pattern, which was monitored by measuring the cell counts per mL, and T cells were diluted in fresh medium every two days and de-beaded and harvested for further analyses on day 8 or beyond depending on the size of the cells. Aliquots of T cells were stained to measure CAR expression by flow cytometry on day 7 or 8 on a FACS Fortessa (BD).

Binder	binding result [1]	binding result 245	CAR MFI on T cells (Day 5) [2]	CAR MFI on T cells (Day 9) [3]	binding result [4]
B1	binds	binds	–	–	–
B2	–	–	33700 MFI	2860 MFI	–
B3	–	–	–	–	no binding
B4	–	–	24400 MFI	2100 MFI	–
B5	–	–	9460 MFI	929 MFI	–
B6	–	–	27300 MFI	3290 MFI	–
B7	–	–	29100 MFI	3470 MFI	–
